Laboratory results as given in paper PMC3115958 (2011).

Molecular target: wild type sortilin expressed in COS-7 cells (UniProt Q99523 78-831)
Sequence (Q99523 78-831): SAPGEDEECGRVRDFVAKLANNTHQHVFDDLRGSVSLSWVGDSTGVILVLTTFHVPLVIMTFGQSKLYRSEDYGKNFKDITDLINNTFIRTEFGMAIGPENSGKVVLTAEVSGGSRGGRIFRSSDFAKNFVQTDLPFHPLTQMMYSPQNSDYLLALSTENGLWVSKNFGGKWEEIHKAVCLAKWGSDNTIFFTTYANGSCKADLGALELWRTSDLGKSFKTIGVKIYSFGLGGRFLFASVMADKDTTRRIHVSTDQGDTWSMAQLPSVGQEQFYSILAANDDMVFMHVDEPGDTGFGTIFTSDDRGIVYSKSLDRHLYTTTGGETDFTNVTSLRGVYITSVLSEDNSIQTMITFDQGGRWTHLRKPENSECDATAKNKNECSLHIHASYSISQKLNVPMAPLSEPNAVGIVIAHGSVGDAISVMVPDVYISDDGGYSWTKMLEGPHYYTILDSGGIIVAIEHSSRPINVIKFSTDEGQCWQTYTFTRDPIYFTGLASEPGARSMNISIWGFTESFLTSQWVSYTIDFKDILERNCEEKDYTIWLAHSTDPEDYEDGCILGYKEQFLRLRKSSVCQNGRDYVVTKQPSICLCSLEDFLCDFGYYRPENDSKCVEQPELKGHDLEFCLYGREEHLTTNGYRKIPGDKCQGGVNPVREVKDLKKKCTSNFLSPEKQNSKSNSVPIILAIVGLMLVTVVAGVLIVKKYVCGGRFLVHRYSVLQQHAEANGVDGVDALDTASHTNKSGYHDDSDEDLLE

B1: alkaline phosphatase tagged progranulin C100 (granulin E and its flanking region, aa 494-593) (domain or fragment)
chain: SCEKEVVSAQPATFLARSPHVGVKDVECGEGHFCHDNQTCCRDNRQGWACCPYRQGVCCADRRHCCPAGFRCAARGTKCLRREAPRWDAPLRDPALRQLL
For B1, the Kd was 3 nM.
